Assay results from PMC5441903, “The E3 ligase ABI3-INTERACTING PROTEIN2 negatively regulates FUSCA3 and plays a role in cotyledon development in Arabidopsis thaliana” (Journal of Experimental Botany, 2017).

T1: GST–FUS3 (Arabidopsis thaliana, UniProt Q9LW31 1-313)
T1 construct: FUSCA3 (FUS3), Arabidopsis thaliana, At3g26790; GST fusion of ~66 kDa, construct described in Lu et al. (2010); probably the whole FUS3; also called glutathione S-transferase (GST)–FUS3; source: recombinant, purified (glutathione resin)
T1 sequence (looked up): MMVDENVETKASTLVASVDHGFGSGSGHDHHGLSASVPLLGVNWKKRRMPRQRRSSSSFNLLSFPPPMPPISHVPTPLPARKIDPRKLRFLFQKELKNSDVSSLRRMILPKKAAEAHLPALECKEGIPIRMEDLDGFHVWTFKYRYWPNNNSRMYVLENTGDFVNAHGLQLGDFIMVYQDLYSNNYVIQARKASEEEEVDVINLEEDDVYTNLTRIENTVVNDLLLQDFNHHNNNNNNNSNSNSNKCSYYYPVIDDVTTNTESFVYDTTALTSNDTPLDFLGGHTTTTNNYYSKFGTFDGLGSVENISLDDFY

B1: FLAG-AIP2-6×His (natural protein, Arabidopsis thaliana, UniProt Q8RXD3 1-310, looked up)
chain: MDASSSPSPSEESLKLELDDLQKQLNKKLRFEASVCSIHNLLRDHYSSSSPSLRKQFYIVVSRVATVLKTRYTATGFWVAGLSLFEEAERLVSDASEKKHLKSCVAQAKEQLSEVDNQPTESSQGYLFEGHLTVDREPPQPQWLVQQNLMSAFASIVGGESSNGPTENTIGETANLMQELINGLDMIIPDILDDGGPPRAPPASKEVVEKLPVIIFTEELLKKFGAEAECCICKENLVIGDKMQELPCKHTFHPPCLKPWLDEHNSCPICRHELPTDDQKYENWKEREKEAEEERKGAENAVRGGEYMYV
notes: tagged protein of ~40 kDa; also called AIP2-His; source: cloned into pET28, purified (Ni-NTA-agarose)
B2: AIP2^(C/S,E/G)-6×His (inactive AIP2 variant) (natural protein, Arabidopsis thaliana, UniProt Q8RXD3 1-310, looked up)
chain: MDASSSPSPSEESLKLELDDLQKQLNKKLRFEASVCSIHNLLRDHYSSSSPSLRKQFYIVVSRVATVLKTRYTATGFWVAGLSLFEEAERLVSDASEKKHLKSCVAQAKEQLSEVDNQPTESSQGYLFEGHLTVDREPPQPQWLVQQNLMSAFASIVGGESSNGPTENTIGETANLMQELINGLDMIIPDILDDGGPPRAPPASKEVVEKLPVIIFTEELLKKFGAEAESSICKGNLVIGDKMQELPCKHTFHPPCLKPWLDEHNSCPICRHELPTDDQKYENWKEREKEAEEERKGAENAVRGGEYMYV
notes: ~40 kDa; Probably the same FLAG-...-6×His construct as m5 with the three mutations; source: recombinant, purified

Molecular target: T1, GST–FUS3
Assay: pull-down; purified GST–FUS3 as bait, purified AIP2-6×His variants as prey; glutathione resin; immunoblots with anti-His and anti-GST
Conditions: both partners purified

| binding result | Binder |
| --- | --- |
| binds | B1 |
| binds | B2 |
